Numbered stars: 1 amine (or outer) side, 2 acyl side, 3 side chain; on linkers, the order of the positions; unused ones are H or OH. Square brackets hold non-standard residues; d marks the D form. Side chains are listed from the residue outwards. Ends that are not written are not given here. * marks the point of attachment. C20 diacid = O=C(O)CCCCCCCCCCCCCCCCCCC(=O)*; γGlu = O=C(O)[C@H](CCC(=O)[*:2])N[*:1]; AEEA = NCCOCCOCC(=O)O; Aib = CC(C)(N)C(=O)O
T1: human GIP receptor (human, UniProt P48546 22-466)
T1 sequence (looked up): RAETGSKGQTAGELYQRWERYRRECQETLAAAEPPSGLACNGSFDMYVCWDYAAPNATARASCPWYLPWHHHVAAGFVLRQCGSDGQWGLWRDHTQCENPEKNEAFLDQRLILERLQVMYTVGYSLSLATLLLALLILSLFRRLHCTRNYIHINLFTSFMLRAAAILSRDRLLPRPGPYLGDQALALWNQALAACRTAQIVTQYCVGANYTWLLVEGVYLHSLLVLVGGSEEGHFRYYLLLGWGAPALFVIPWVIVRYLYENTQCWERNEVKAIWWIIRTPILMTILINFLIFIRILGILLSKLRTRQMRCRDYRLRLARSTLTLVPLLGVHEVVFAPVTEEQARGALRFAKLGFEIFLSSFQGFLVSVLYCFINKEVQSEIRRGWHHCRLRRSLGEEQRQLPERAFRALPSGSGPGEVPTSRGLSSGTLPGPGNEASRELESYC


Assays:
human GIP receptor = molecular target: T1, human GIP receptor; assay: cell-based or functional assay
human GLP-1 receptor = human GLP-1 receptor (human, UniProt P43220 24-463); assay: cell-based or functional assay

| hGIPR cAMP EC50 ratio (human GIP receptor) | hGIPR cAMP Rel EC50 (human GIP receptor) | hGLP1R cAMP EC50 ratio (human GLP-1 receptor) | hGLP1R cAMP Rel EC50 (human GLP-1 receptor) | Binder |
| --- | --- | --- | --- | --- |
| 0.351 | 0.48 nM | 0.207 | 0.283 nM | Y[Aib]EGTFTSDK([AEEA-AEEA-γGlu-C20 diacid])SILLDKIAQ[Aib]AFIEYLIEGG-NH2 (N-terminus assumed; SMILES CC[C@H](C)[C@H](NC(=O)[C@H](CCCCN)NC(=O)[C@H](CC(=O)O)NC(=O)[C@H](CC(C)C)NC(=O)[C@H](CC(C)C)NC(=O)[C@@H](NC(=O)[C@H](CO)NC(=O)[C@H](CCCCNC(=O)COCCOCCNC(=O)COCCOCCNC(=O)CC[C@H](NC(=O)CCCCCCCCCCCCCCCCCCC(=O)O)C(=O)O)NC(=O)[C@H](CC(=O)O)NC(=O)[C@H](CO)NC(=O)[C@@H](NC(=O)[C@H](Cc1ccccc1)NC(=O)[C@@H](NC(=O)CNC(=O)[C@H](CCC(=O)O)NC(=O)C(C)(C)NC(=O)[C@@H](N)Cc1ccc(O)cc1)[C@@H](C)O)[C@@H](C)O)[C@@H](C)CC)C(=O)N[C@@H](C)C(=O)N[C@@H](CCC(N)=O)C(=O)NC(C)(C)C(=O)N[C@@H](C)C(=O)N[C@@H](Cc1ccccc1)C(=O)N[C@H](C(=O)N[C@@H](CCC(=O)O)C(=O)N[C@@H](Cc1ccc(O)cc1)C(=O)N[C@@H](CC(C)C)C(=O)N[C@H](C(=O)N[C@@H](CCC(=O)O)C(=O)NCC(=O)NCC(N)=O)[C@@H](C)CC)[C@@H](C)CC) [Example 70] |
| 0.715 | 0.252 nM | 0.0645 | 0.906 nM | Y[Aib]EGTFTSDYSILLDKIAQ[Aib]K([AEEA-AEEA-γGlu-C20 diacid])FIEYLIEGG-NH2 (N-terminus assumed; SMILES CC[C@H](C)[C@H](NC(=O)[C@H](CCCCN)NC(=O)[C@H](CC(=O)O)NC(=O)[C@H](CC(C)C)NC(=O)[C@H](CC(C)C)NC(=O)[C@@H](NC(=O)[C@H](CO)NC(=O)[C@H](Cc1ccc(O)cc1)NC(=O)[C@H](CC(=O)O)NC(=O)[C@H](CO)NC(=O)[C@@H](NC(=O)[C@H](Cc1ccccc1)NC(=O)[C@@H](NC(=O)CNC(=O)[C@H](CCC(=O)O)NC(=O)C(C)(C)NC(=O)[C@@H](N)Cc1ccc(O)cc1)[C@@H](C)O)[C@@H](C)O)[C@@H](C)CC)C(=O)N[C@@H](C)C(=O)N[C@@H](CCC(N)=O)C(=O)NC(C)(C)C(=O)N[C@@H](CCCCNC(=O)COCCOCCNC(=O)COCCOCCNC(=O)CC[C@H](NC(=O)CCCCCCCCCCCCCCCCCCC(=O)O)C(=O)O)C(=O)N[C@@H](Cc1ccccc1)C(=O)N[C@H](C(=O)N[C@@H](CCC(=O)O)C(=O)N[C@@H](Cc1ccc(O)cc1)C(=O)N[C@@H](CC(C)C)C(=O)N[C@H](C(=O)N[C@@H](CCC(=O)O)C(=O)NCC(=O)NCC(N)=O)[C@@H](C)CC)[C@@H](C)CC) [Example 72] |
| 1.02 | 0.166 nM | 0.0604 | 1.02 nM | Y[Aib]EGTFTSDYSILK([AEEA-AEEA-γGlu-C20 diacid])DKIAQ[Aib]AFIEYLIEGG-NH2 (N-terminus assumed; SMILES CC[C@H](C)[C@H](NC(=O)[C@H](CCCCN)NC(=O)[C@H](CC(=O)O)NC(=O)[C@H](CCCCNC(=O)COCCOCCNC(=O)COCCOCCNC(=O)CC[C@H](NC(=O)CCCCCCCCCCCCCCCCCCC(=O)O)C(=O)O)NC(=O)[C@H](CC(C)C)NC(=O)[C@@H](NC(=O)[C@H](CO)NC(=O)[C@H](Cc1ccc(O)cc1)NC(=O)[C@H](CC(=O)O)NC(=O)[C@H](CO)NC(=O)[C@@H](NC(=O)[C@H](Cc1ccccc1)NC(=O)[C@@H](NC(=O)CNC(=O)[C@H](CCC(=O)O)NC(=O)C(C)(C)NC(=O)[C@@H](N)Cc1ccc(O)cc1)[C@@H](C)O)[C@@H](C)O)[C@@H](C)CC)C(=O)N[C@@H](C)C(=O)N[C@@H](CCC(N)=O)C(=O)NC(C)(C)C(=O)N[C@@H](C)C(=O)N[C@@H](Cc1ccccc1)C(=O)N[C@H](C(=O)N[C@@H](CCC(=O)O)C(=O)N[C@@H](Cc1ccc(O)cc1)C(=O)N[C@@H](CC(C)C)C(=O)N[C@H](C(=O)N[C@@H](CCC(=O)O)C(=O)NCC(=O)NCC(N)=O)[C@@H](C)CC)[C@@H](C)CC) [Example 71] |

Source: patent US20220048967A1 (published 2022)
